Data reported in publication doi:10.1101/351726 (bioRxiv, 2018).

How the values were obtained:
[1] = target: the molecule itself; assay: photon counting histogram
[2] = target: the molecule itself; assay: single-molecule fluorescence brightness analysis

Protein	stoichiometry N [1]	stoichiometry N [2]
MyD88 death domain (1-117 a.a) fused to GFP at the N-terminus (domain or fragment, human, UniProt Q99836 1-117, looked up) MAAGGPGAGSAAPVSSTSSLPLAALNMRVRRRLSLFLNVRTQVAADWTALAEEMDFEYLEIRQLETQADPTGRLLDAWQGRPGASVGRLLELLTKLGRDDVLLELGPSIEEDCQKYI	8	8 to 10 GFP molecules
MyD88 TIR domain (159-296 a.a) fused to GFP at the N-terminus (domain or fragment, human, UniProt Q99836 159-296, looked up) ERFDAFICYCPSDIQFVQEMIRQLEQTNYRLKLCVSDRDVLPGTCVWSIASELIEKRCRRMVVVVSDDYLQSKECDFQTKFALSLSPGAHQKRLIPIKYKAMKKEFPSILRFITVCDYTNPCTKSWFWTRLAKALSLP	3	~3 GFP fluorophores
